{
  "source": "the DeepSol protein solubility set",
  "data": [
    {"assay": "soluble on expression in E. coli; label from the status in PepcDB or PDB records", "values": [
      {"sequence": "GPLGSAQTLQMEIPNFGNSILECLNEQRLQGLYCDVSVVVKGHAFKAHRAVLAASSSYFRDLFNNSRSAVVELPAAVQPQSFQQILSFCYTGRLSMNVGDQDLLMYTAGFLQIQEIMEKGTEFFLKVSS", "soluble on expression in E. coli": "soluble"},
      {"sequence": "MGSDKIHHHHHHMLNFYPGPSKLHANIDLHLQQAITSGILSMNHRSMDFMQLYQQVQENFEQFYDLPKDYKVYFTSAATECWTILAQSFPNRSFLHLYNGSFGKKWMEVSKQLEVEHTSVVFDIHGELPVTEINPDTAAEIVCTTLVETSNGTFLSKDIQAAVRETFSDALIAVDATSALAGLSVTWEHADIWFASVQKCFGLPSGLGILILSPTAQHTVEFRSKDIHYNSLKRIVENGASFQTTHTPNILGIYLLAQRLKEIDVTEFFNRNERMNYLYNHFSSHPSLQPLIIEKSVQSATVLTLKGDEEYIKQVKKSLKAQDIIIGSGYGVWKENTIRLANFPAHTDEDFKKLLLVI", "soluble on expression in E. coli": "not soluble"},
      {"sequence": "MGHHHHHHSHLFQGDDAKEKIAVVDETNELYPVFSKQLKAVDTDGDLDVKLSKQSEDEVTKQVKDESLDGMLIIKRDEKGTISGTYKALTISDESTYQTLQQALTQTKTAVGTAELGVSQETISSLYAPVTVGQKALKEGAKSEEELGQT", "soluble on expression in E. coli": "not soluble"},
      {"sequence": "MVYDLIVIGGGSGGMAAARRAARHNAKVALVEKSRLGGTCVNVGCVPKKIMFNAASVHDILENSRHYGFDTKFSFNLPLLVERRDKYIQRLNNIYRQNLSKDKVDLYEGTASFLSENRILIKGTKDNNNKDNGPLNEEILEGRNILIAVGNKPVFPPVKGIENTISSDEFFNIKESKKIGIVGSGYIAVELINVIKRLGIDSYIFARGNRILRKFDESVINVLENDMKKNNINIVTFADVVEIKKVSDKNLSIHLSDGRIYEHFDHVIYCVGRSPDTENLKLEKLNVETNNNYIVVDENQRTSVNNIYAVGDCCMVKKSKEIEDLNLLKLYNEERYLNKKENVTEDIFYNVQLTPVAINAGRLLADRLFLKKTRKTNYKLIPTVIFSHPPIGTIGLSEEAAIQIYGKENVKIYESKFTNLFFSVYDIEPELKEKTYLKLVCVGKDELIKGLHIIGLNADEIVQGFAVALKMNATKKDFDETIPIHPTAAEEFLTLQPWMK", "soluble on expression in E. coli": "soluble"},
      {"sequence": "MGSSHHHHHHSSENLYFQGHMLANNNKRSKLSTVPSSRPIRVGFVGLTSGKSWVAKTHFLAIQQLSSQFQIVALYNPTLKSSLQTIEQLQLKHATGFDSLESFAQYKDIDMIVVSVKVPEHYEVVKNILEHSSQNLNLRYLYVEWALAASVQQAEELYSISQQRANLQTIICLQGRKSPYIVRAKELISEGCIGDINSIEISGNGGWYGYERPMRSPEYLYDIESGVNLISNSFGHTIDVLQYITGSYFQKINAMISNNIPTQFLLDENGKRTKETISKTCPDHLLFQGILENGKVPVSCSFKGGTPVKKLTKNLVIDIHGTKGDLKIEGDAGFVEISNLVLYFYGIKNGNGSSNGTDNNGAAAIKDKEKVTKSPSPSTGTSEEEQTMEVFHLRNYNSVVGNILRIYESIADYHFLGKPESKSSRGPDDLFASTKFDKQGFRFEGFPTFKDAIILHRLIDAVFRSDKEEKTLDVSKIMI", "soluble on expression in E. coli": "soluble"},
      {"sequence": "MAHHHHHHMSKAVQQIFEDYNRSRAQFTQSIYDMCLKAHHMEVIISTDIIMLLRPLILDKVPIVQQNATQILGKMASHSEEVALTILQNDVLPHLVYCLKHENKNYRKNCANTLRCLASHNAKLANLVAEEENCIDNLVDSLDEYDVRLKEACLNALCAIGKHDVDLSKQLMAKGIIPLVILSLQEKDTNLVRSSLNILTELSKHTNEIAKEVVDNNALPHLIKFLDHTDVQVKRYACNCLAQIAKHKEELTELIIESDVFPRVIYLLNDSDDVVKKNCANCLKEMSKHNEDICKIIARAGSLPFLCECIEQSSKGAVKLPAILCIGFIASFSESLSLNIILSNAIPILKKCLIGEEEDYIKASCVWAVGNIGKHSSSHAKKLSDENLLIILVNLYNANDSSDDLKKKVKLSFKGVIQKVTDLESLEPVFLKATAKLAKYCICQFAKIIPKSPAHKKAFIKSGCLKRLQVGRQSSCAIFPRCRVTVLPPYRPSAHPCTPSPLHRK", "soluble on expression in E. coli": "not soluble"},
      {"sequence": "RKRRRGYDVDEQGKIVRGKGTVSSNYDNYVFDIWKQYYPQPVEIKHDHVLDHYDIHEELGTGAFGVVHRVTERATGNNFAAKFVMTPHESDKETVRKEIQTMSVLRHPTLVNLHDAFEDDNEMVMIYEFMSGGELFEKVADEHNKMSEDEAVEYMRQVCKGLCHMHENNYVHLDLKPENIMFTTKRSNELKLIDFGLTAHLDPKQSVKVTTGTAEFAAPEVAEGKPVGYYTDMWSVGVLSYILLSGLSPFGGENDDETLRNVKSCDWNMDDSAFSGISEDGKDFIRKLLLADPNTRMTIHQALEHPWLTPGNAPGRDSQIPSSRYTKIRDSIKTKYDAWPEPLPPLGRISNYSSLRKHRPQEYSIRDAFWDRSEAQPRFIVKPYGTEVGEGQSANFYCRVIASSPPVVTWHKDDRELKQSVKYMKRYNGNDYGLTINRVKGDDKGEYTVRAKNSYGTKEEIVFLNVTRHSEPLKFEPLEPMKKAPSPPRVE", "soluble on expression in E. coli": "soluble"},
      {"sequence": "MSLNINKVFYHSSTNMNEVPDNSVDLIITSPPYFNIKDYAKNGTQDLQHSAQHVEDLGALEKYEDYLLGLLKVWLECYRALKPNGKLCINVPLMPMLKKVLNTHYNRHIFDLHADIQHSILHDLNNMLKNKPKMFLLDVYIWKRANPTKRLMFGSYPYPRNFYAQNTIEFIGVFVKDGKPKQPTEEQKEQSQLTQEEWVEFTKQIWEIPIPNKNDIAFGKHAALMPAELARRLIRLYSCVGDVVLDPFSGSGTTLREAKLLKRNFIGYELYENYKPLIEQKLGNLFDFEEGHHHHHH", "soluble on expression in E. coli": "soluble"},
      {"sequence": "MGSDKIHHHHHHAAVTKTTWSDAPAREFVFVENNSDDNFFVTPGGALDPRMTGANRWTGLKYTGSGTIYQQSLGYIDNGYNTGLNANWKFDMWLENSPVSHPLTGLRCINWYAGCDMATSLILPQTTDASGFYGATVTSGGAKWMHGMMSDAFYQYLQQMPVGGSFTMTINACQTSVNYDASSGARCKDQASGNWYVRNVTHTKAANLRLINTHSLAEVFINSDGVPTLGEGNADCRTQTIGSRSGLSCKMVNYTLQTNGLSNTSIHIFPAIANSSLASAVGAYDMQFSLNGSSWKPVSNTAYYYTFNEMKSSDSIYVFFSSNFFKQMVNLGISDINTKDLFNFRFQNTTSPESGWYEFSTSNTLIIKPRDFSISIISDEYTSAPSREGYVGSGEPALDFGYIVTTSGKTAADEVLIKVTGPAQVIGGRSYCLFSSDDGTAKVPFPATLSFITRSGTTQTYDAGCDDSWRDMTDALWLTTPWTDISGEVGQMDKTTVKFSIPMDNAISLRTVDDNGWFGEVSASGEIHVQATWRNIN", "soluble on expression in E. coli": "not soluble"},
      {"sequence": "MQTVIGTTNGRPGTTYYQRGRMHRHQPGNRQQKEKKAAAGRNRNDFLTGRILPVTPDYCMEIRAGEKINLTTRENFDFLYRSALRYSALVGLRLPFRPTGKSPRMNIVKLYRAMDTILPEHVNLEEENGRLYFCLYRFHEWPEYKLFWIPLEFTERLPEKLGKIALEFIRQLARHHGIPKSTDTSYHEMAHDYLEDYRLYDEEATAGEIRRKAALARLYEKGKAHRILKRMDNPKGFLADLEGEIRKYHTKKNNERALLELLTEGTAYISYGSPSIMQYSYDWAYEKAADFRPVGLDTQIMVTWSVKDAMNDEMESYFNSDYQESYVITPVTTFHLTPDTEKPFSMDDFPERFSHWLERFTKLITNNF", "soluble on expression in E. coli": "not soluble"},
      {"sequence": "MILLLLLFILGSVSPDELISTRCQAQCLHLMDQRLQNNMELRKTLKHHIIQLCKEDATCSACSAPCREQFDDIKACKKSCVASDDRETCEDSCHYLQRIYQEKPGACPSVSNQSNYECSALCQMDGECPETQKCCSSGCSRQCLKPRSSDIKLLPIPRNISVQERKRKRSIIIRWATGRLSKAQQNENANLFLVQWRWGLHADESAMTEWQTVTVRNKPYAILKHLLSPGRFYEFRTAAVSQEGSLGFSSPSKPFKISKEAKAPPPPKDLSLGASKVVASGLWNQMVHWNPPPSDLPIKNYQISWASSTKSEADAFEEQMRKKSTLEFAAHEKRSLQSDDDEEFIGIQERDRQSVVVPSHATSSEITGLFPNSVYLVEIHASVDSSDGELHGEKGVVFIRTADSLSAVPEDREPYTGPKARIAHGSEELKIEASLKDLKTSSHAPNRPNSPQPAHLEIQTPFFDTELQTQLNWLNAAHCTPAKRQFSVKVRKTLCREYQPNHHSDTRWHDLRVTDCSALLKGLSFDCDYKVEVTDTLTGDFVVDGVFSTDTCDQTSSLTPIDCSSVTTPIQCQVTSESSAHCHWTRHHDAMQTVIGYRILLSSPINHDTNTTINQPQLREVRYENLAPGYVYTVEVQSITNKGLGRTVSTQFVTHPDLDSNAIQRFPGGEIIELPLESSGKLSIFSIFSSFFLVLLLRLL", "soluble on expression in E. coli": "not soluble"}
    ]}
  ]
}
